The record followed here is patent US20220017612A1.

Positions count from the first letter of the chain named. Read-outs that look alike come from different tables or passages of the source.

Assay [1] has as its target biotinylated human LAP-TGFβ1 (Example 14) (human) (UniProt P01137). Kind of assay: BLI, antigen on tip, CHO supernatant; ratio to wild type. For orientation: In BLI a coated tip is dipped into the sample, and binding shifts an interference pattern.
Assay [2] deals with fusion protein of a human IgG1 Fc domain and human LAP-TGFβ1 (human) (UniProt P01137). In words: SPR (Biacore T200), antigen-Fc captured, 1:1 model. Background: Surface plasmon resonance follows binding to a sensor surface in real time, without labels.
Assay [3] has as its target fusion protein of a human IgG1 Fc domain and mouse LAP-TGFβ1 (human; mouse) (UniProt P04202). In words: SPR (Biacore T200), antigen-Fc captured, 1:1 model.
Assay [4] deals with fusion protein of a human IgG1 Fc domain and cynomolgus monkey LAP-TGFβ1 (human; cynomolgus monkey). Kind of assay: SPR (Biacore T200), antigen-Fc captured, 1:1 model.
The target of assay [5] is fusion protein of a human IgG1 Fc domain and rat LAP-TGFβ1 (human; rat) (UniProt P17246). Kind of assay: SPR (Biacore T200), antigen-Fc captured, 1:1 model.
Assay [6] has as its target fusion protein of a human IgG1 Fc domain and human LAP-TGFβ1 (human) (UniProt P01137). In words: SPR (Biacore T200), antigen-Fc captured, 1:1 model. The source holds these as a separate data set.
Assay [7] concerns the target human-chicken LAP-TGFβ1 chimera #2 on HT1080 cells (human/chicken chimera). Kind of assay: flow cytometry, transduced HT1080 cells. (Flow cytometry measures light scatter and fluorescence of single cells or particles in a stream.)
The target in assay [8] is human-chicken LAP-TGFβ1 chimera #1 on HT1080 cells (human/chicken chimera). In words: flow cytometry, transduced HT1080 cells.
Sequence of human-chicken LAP-TGFβ1 chimera #1 on HT1080 cells (human/chicken chimera) (chain, as listed by the source mutant limits assumed): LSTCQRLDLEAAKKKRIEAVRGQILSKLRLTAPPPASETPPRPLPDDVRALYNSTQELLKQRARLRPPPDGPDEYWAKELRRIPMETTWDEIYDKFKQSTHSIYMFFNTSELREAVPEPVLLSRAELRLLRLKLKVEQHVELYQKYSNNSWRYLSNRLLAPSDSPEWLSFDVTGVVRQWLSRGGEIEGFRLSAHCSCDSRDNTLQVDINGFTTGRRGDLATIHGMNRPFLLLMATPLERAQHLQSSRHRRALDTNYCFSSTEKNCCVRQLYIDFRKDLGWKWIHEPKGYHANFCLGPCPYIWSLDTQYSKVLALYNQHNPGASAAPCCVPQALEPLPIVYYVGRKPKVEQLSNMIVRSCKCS

Sequence of fusion protein of a human IgG1 Fc domain and human LAP-TGFβ1 (human) (P01137 30-390 limits assumed): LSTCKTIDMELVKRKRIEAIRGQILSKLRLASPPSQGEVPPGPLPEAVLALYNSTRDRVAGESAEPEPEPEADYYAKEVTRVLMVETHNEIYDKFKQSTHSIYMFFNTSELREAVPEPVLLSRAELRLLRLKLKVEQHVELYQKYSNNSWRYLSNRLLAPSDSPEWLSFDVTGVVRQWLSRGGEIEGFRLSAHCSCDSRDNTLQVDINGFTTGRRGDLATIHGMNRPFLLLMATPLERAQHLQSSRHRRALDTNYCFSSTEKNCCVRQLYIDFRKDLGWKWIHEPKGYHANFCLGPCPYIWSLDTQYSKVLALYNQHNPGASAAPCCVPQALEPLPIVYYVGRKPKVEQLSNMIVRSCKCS
Sequence of biotinylated human LAP-TGFβ1 (Example 14) (human) (P01137 30-390 limits assumed): as above
Sequence of fusion protein of a human IgG1 Fc domain and mouse LAP-TGFβ1 (human; mouse) (P04202 30-390 limits assumed): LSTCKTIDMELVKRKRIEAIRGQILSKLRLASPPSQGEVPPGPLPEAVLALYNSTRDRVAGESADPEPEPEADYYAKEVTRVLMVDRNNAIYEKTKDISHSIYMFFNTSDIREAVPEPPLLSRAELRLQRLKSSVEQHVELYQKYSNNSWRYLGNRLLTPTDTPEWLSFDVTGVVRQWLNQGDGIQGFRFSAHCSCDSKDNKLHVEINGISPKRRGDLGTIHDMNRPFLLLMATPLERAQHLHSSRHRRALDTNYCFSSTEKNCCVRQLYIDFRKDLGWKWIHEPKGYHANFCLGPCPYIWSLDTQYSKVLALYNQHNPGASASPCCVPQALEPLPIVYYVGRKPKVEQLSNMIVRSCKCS
Sequence of fusion protein of a human IgG1 Fc domain and rat LAP-TGFβ1 (human; rat) (P17246 30-390 limits assumed): as the sequence (P04202 30-390 limits assumed) above, with E93D, S99T, L131F, S134T, K202V counted along it
Sequence of human-chicken LAP-TGFβ1 chimera #2 on HT1080 cells (human/chicken chimera) (chain, as listed by the source mutant limits assumed): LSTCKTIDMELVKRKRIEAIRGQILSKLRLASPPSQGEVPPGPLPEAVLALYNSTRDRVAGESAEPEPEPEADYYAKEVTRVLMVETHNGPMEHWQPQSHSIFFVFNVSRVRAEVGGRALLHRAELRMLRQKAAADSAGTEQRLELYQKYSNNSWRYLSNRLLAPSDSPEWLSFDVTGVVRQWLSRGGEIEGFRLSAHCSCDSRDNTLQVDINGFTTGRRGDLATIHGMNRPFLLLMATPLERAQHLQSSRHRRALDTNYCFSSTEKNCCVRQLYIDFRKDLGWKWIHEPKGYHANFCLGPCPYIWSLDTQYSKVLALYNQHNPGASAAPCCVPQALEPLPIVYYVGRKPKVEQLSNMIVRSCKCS

B1: 20E6_H0.2aL1_hIgG1 VH_R50A (antibody, V domains shown)
VH: EVQLVQSGAEVKKPGASVKVSCKASGYTFTSYWMHWVRQAPGQGLEWMGAIDPQSGGIKYAQKFQGRATLTVDTSTSTAYMELSRLRSDDTAVYYCARWDYGGYFDVWGQGTLVTVSS
VL: DIQMTQSPSSLSASVGDRVTITCRASQDITNYLNWYQQKPGKAVKLLIYYTSRLHSGVPSRFSGSGSGTDYTLTISSLQPEDFATYFCQQGDTLPWTFGQGTKLEIKR
Consider B1, for which the KD,WT/KD,Ala in assay [1] turned out to be 0.

B2: 20E6_H0.2aL1_hIgG1 VH_Y101A (antibody, V domains shown)
VH: B1 VH with A50R, Y101A
VL: B1 VL
In the case of B2, the KD,WT/KD,Ala in assay [1] turned out to be 0.

B3: 20E6_H0.2aL1_hIgG1 VL_Y50A (antibody, V domains shown)
VH: B1 VH with A50R
VL: B1 VL with Y50A
Turning to B3, the KD,WT/KD,Ala in assay [1] stood at 0.

B4: 20E6_H0.2aL1_hIgG1 VL_L94A (antibody, V domains shown)
VH: B1 VH with A50R
VL: B1 VL with L94A
For B4, the KD,WT/KD,Ala in assay [1] was 0.

B5: 20E6_H0.2aL1_hIgG1 VL_D92A (antibody, V domains shown)
VH: B1 VH with A50R
VL: B1 VL with D92A
Turning to B5, the KD,WT/KD,Ala in assay [1] came to 0.

B6: 20E6_H0.2aL1_hIgG1 VL_Q27A (antibody, V domains shown)
VH: B1 VH with A50R
VL: B1 VL with Q27A
For B6, the KD,WT/KD,Ala in assay [1] was determined as 0.03.

B7: 20E6_H0.2aL1_hIgG1 VL_G91A (antibody, V domains shown)
VH: B1 VH with A50R
VL: B1 VL with G91A
B7: the KD,WT/KD,Ala in assay [1] was found to be 0.

B8: 20E6_H0.2aL1_hIgG1 VH_G102A (antibody, V domains shown)
VH: B1 VH with A50R, G102A
VL: B1 VL
With B8, the KD,WT/KD,Ala in assay [1] came out at 0.

B9: 20E6_H0.2aL1_hIgG1 VL_P95A (antibody, V domains shown)
VH: B1 VH with A50R
VL: B1 VL with P95A
For the molecule B9, the KD,WT/KD,Ala in assay [1] was 0.

B10: 20E6_H0.2aL1_hIgG1 VL_L33A (antibody, V domains shown)
VH: B1 VH with A50R
VL: B1 VL with L33A
On to B10, for which the KD,WT/KD,Ala in assay [1] stood at 0.08.

B11: 20E6_H0.2aL1_hIgG1 VH_W99A (antibody, V domains shown)
VH: B1 VH with A50R, W99A
VL: B1 VL
Regarding B11, the KD,WT/KD,Ala in assay [1] was 0.

B12: 20E6_H0.2aL1_hIgG1 VL_W96A (antibody, V domains shown)
VH: B1 VH with A50R
VL: B1 VL with W96A
For the molecule B12, in assay [1], the KD,WT/KD,Ala worked out at 0.

B13: humanized 20E6 F(ab′) binding protein (Fab, V domains shown)
VH: B1 VH with A50R
VL: B1 VL
Broadly, the Kd is the constant that tells how readily two partners part at equilibrium. A word on the koff: it is the first-order rate constant of dissociation. By kon is commonly meant a measure of how fast the partners come together. B13: the Kd in assay [2] was determined as 49.5 nM; in assay [3], 48.3 nM; in assay [4], 60.3 nM; in assay [5], 59.4 nM; in assay [6], 40.8 nM. Moreover, the koff stood at 0.0939 s⁻¹ in assay [2]; 0.079 s⁻¹ in assay [3]; 0.095 s⁻¹ in assay [4]; 0.106 s⁻¹ in assay [5]; 0.08 s⁻¹ in assay [6]. Moreover, the kon came to 1.91e+06 M⁻¹ s⁻¹ in assay [2]; 1.64e+06 M⁻¹ s⁻¹ in assay [3]; 1.58e+06 M⁻¹ s⁻¹ in assay [4]; 1.79e+06 M⁻¹ s⁻¹ in assay [5]; 1.96e+06 M⁻¹ s⁻¹ in assay [6].

B14: 20E6_H0.2aL1_hIgG1 VL_N34A (antibody, V domains shown)
VH: B1 VH with A50R
VL: B1 VL with N34A
Consider B14, for which the KD,WT/KD,Ala in assay [1] stood at 0.07.

B15: 20E6_H0.2aL1_hIgG1 VL_D28A (antibody, V domains shown)
VH: B1 VH with A50R
VL: B1 VL with D28A
On to B15, for which, in assay [1], the KD,WT/KD,Ala came out at 0.

B16: 20E6_H0.2aL1_hIgG1 VL_Y32A (antibody, V domains shown)
VH: B1 VH with A50R
VL: B1 VL with Y32A
Consider B16, for which the KD,WT/KD,Ala in assay [1] turned out to be 0.

B17: 20E6_H0.2aL1_hIgG1 VL_A25G (antibody, V domains shown)
VH: B1 VH with A50R
VL: B1 VL with A25G
Take B17: in assay [1], the KD,WT/KD,Ala was determined as 0.09.

B18: 20E6_H0.2aL1_hIgG1 VH_G103A (antibody, V domains shown)
VH: B1 VH with A50R, G103A
VL: B1 VL
In the case of B18, the KD,WT/KD,Ala in assay [1] came to 0.

B19: 20E6_H0.2aL1_hIgG1 VH_Y104A (antibody, V domains shown)
VH: B1 VH with A50R, Y104A
VL: B1 VL
With B19, in assay [1], the KD,WT/KD,Ala is 0.

B20: 20E6_H0.2aL1_hIgG1 VH_F105A (antibody, V domains shown)
VH: B1 VH with A50R, F105A
VL: B1 VL
On to B20, for which the KD,WT/KD,Ala in assay [1] turned out to be 0.

B21: 20E6_H0.2aL1_hIgG1 VL_T97A (antibody, V domains shown)
VH: B1 VH with A50R
VL: B1 VL with T97A
Regarding B21, in assay [1], the KD,WT/KD,Ala is 0.01.

B22: 20E6_H0.2aL1_hIgG1 VL_Q90A (antibody, V domains shown)
VH: B1 VH with A50R
VL: B1 VL with Q90A
For B22, the KD,WT/KD,Ala in assay [1] came out at 0.

B23: 28G11_(hyb) (antibody, mouse IgG2b, kappa, V domains shown)
VH: EVKLVESGGGLVQPGGSLSLSCAASGFTFTDYYMSWVRQPPGKALEWLGFIRNKPNGYTTEYSASVKGRFTISRDNSQSILYLQMNVLRAEDSATYYCARYTGGGYFDYWGQGTTLTVSS
VL: DIQMTQTTSSLSASLGDRLTISCRASQDISNYLNWYQQKPDGTVKLLIYYTSRLHSGVPSRFSGSGSGTDYSLTISNLEQADIATYFCQQGDTLPWTFGGGTKLEIKR
With B23, the % GFP+/APC+ cells in assay [7] and in assay [8] was 0.2% throughout.
